Test results reported in the supplement of paper PMC10567573.

B1: SMOC2 (parent)
chain: DCAGSPQKPLCASDGRTFLSRCEF

Variants of: B1
Test: protein stability index of a GFP-peptide fusion (GPS, HEK-293T) (PSI 1-6); higher = more stable
Conditions: c terminus: a fixed tail appended
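Note: lentivirally expressed fusions sorted by FACS into six bins by GFP to DsRed ratio, PSI derived from sequencing read proportions per bin multiplied by bin number.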

Protein stability index of substitutions, site by site:
A3: S 2.32 | V 2.66 | W 2.21 | L 2.73 | D 2.95 | Y 2.02 | E 3.01 | P 2.37 | T 2.56 | F 3.16 | H 2.29 | R 2.38
P9: F 1.99 | G 2.73 | D 2.97 | M 2.63 | I 2.04 | R 2.77 | K 1.85 | S 3.08 | W 1.04 | Y 2.47 | V 2.4 | Q 3.13 | A 3.42 | C 2.65 | H 2.36
D1: F 1.5 | L 2.85 | R 1.55 | S 1.93 | I 2.92 | A 1.89 | K 2.59 | T 2.59 | G 2.38 | Y 1.72 | M 1.7 | V 2.35
S5: P 2.72 | M 2.52 | E 2.56 | D 2.96 | W 2.46 | A 2.94 | N 2.78 | G 3.07 | V 2.76 | L 2.46 | F 1.72
F24: I 3.16 | R 2.57 | Q 3.6 | P 2.43 | M 2.72 | W 2.02 | V 3.32 | A 3.45 | H 3.79 | K 2.97 | L 3.44 | D 4.38 | T 2.61 | Y 2.67 | E 4.41
P6: S 3.39 | H 2.21 | Y 2.62 | C 2.14 | W 2.08 | G 2.62 | K 1.69 | T 2.53 | L 2.18 | I 2.34 | D 2.46 | V 1.8 | F 1.76 | R 2.19 | Q 2.75
S20: M 1.41 | A 2.85 | E 2.93 | K 3.04 | D 4.1 | G 2.17 | P 3.59 | N 3.64 | V 3.04 | F 1.25 | Q 2.97 | W 3.01 | I 3.04 | R 3.23 | Y 1.9
R21: F 2.02 | P 3.91 | Y 2.27 | T 1.9 | N 3.78 | W 1.76 | C 2.44 | D 4.14 | Q 3.1 | V 2.65 | E 3.62 | H 3.26
C11: Y 2.58 | H 2.73 | N 2.67 | G 2.04 | E 3.46 | S 3.19 | R 2.28 | Q 2.82 | V 2.66 | I 2.56 | F 1.8 | M 3.23 | K 2.72 | D 3.79 | W 2.41
A12: Q 3.1 | D 2.88 | S 4.06 | P 3.11 | L 2.56 | R 2.14 | N 2.94 | V 2.97 | M 2.7 | K 2.59 | W 1.51 | F 1.89 | Y 2.47
K8: F 3.62 | G 2.94 | Q 2.77 | D 3.33 | N 2.3 | L 2.41 | C 2.18 | H 2.48 | T 2.69 | M 2.23 | S 2.34 | W 2.46 | V 2.13 | R 2.83
T17: H 3.45 | W 1.29 | S 2.66 | K 3.44 | A 2.83 | I 2.33 | L 2.11 | P 3.4 | F 2.32 | Y 2.77 | Q 3.7 | E 3.82 | V 2.22 | M 3.31 | R 2.47 | N 3.27
L10: V 2.28 | I 2.63 | G 3.23 | E 3.84 | H 3.54 | P 2.93 | R 2.48 | C 2.85 | D 3.29 | S 2.97 | T 2.65 | A 2.92 | W 2.16
C22: M 2.31 | H 3.68 | P 3.95 | Y 3.67 | F 2.5 | V 2.63 | T 3.29 | S 3.49 | D 4.81 | W 2.93 | K 4.42
C2: Y 2.63 | R 3.19 | M 2.86 | N 2.81 | S 2.18 | Q 3.12 | H 3.36 | E 3.84 | W 2.23 | A 2.79 | F 3.25 | D 3.44 | T 3.5 | G 3.66 | K 3.03
F18: D 4.51 | Q 3.89 | C 3.73 | Y 3.09 | W 1.79 | T 4 | V 2.84 | M 4.01 | A 3.52 | K 4.09 | E 4.54 | G 4.82 | S 3.83
G15: Y 2.81 | T 2.65 | M 2.81 | C 1.99 | V 2.03 | H 2.27 | Q 2.57 | L 2.17 | I 2.76 | N 3.01 | P 3 | S 2.5 | F 2.42 | E 4.05
G4: W 2.32 | K 2.65 | S 2.24 | F 2.23 | D 4.36 | Y 2.22 | P 2.56 | I 2.87 | Q 2.88 | A 2.77 | V 2.47 | C 3.17 | N 2.62 | E 3.83
D14: Y 2.26 | G 2.56 | S 3.19 | H 1.78 | L 2.2 | R 2.03 | T 2.82 | E 2.54 | I 2.12 | C 1.6 | V 2.6
E23: W 1.82 | I 1.52 | D 3.65 | K 3.63 | F 2.38 | N 3.31 | H 2.46 | G 1.5 | L 4.25 | A 2.59 | S 2.74 | C 2.53 | V 1.73 | Q 3.27 | R 2.43 | T 2.19 | Y 1.84 | P 2.95 | M 2.1
Q7: R 3.06 | N 1.96 | H 2.1 | M 2.73 | F 1.75 | E 1.81 | A 2.51 | Y 2.36 | K 3.04 | D 2.94 | C 2.26 | I 1.83 | G 2.88 | V 2.39 | T 2.46 | W 2.55 | L 2.11
L19: P 3.97 | V 1.88 | Q 2.49 | I 2.07 | N 4.01 | K 3.53 | Y 2.49 | E 3.51 | G 3.07 | R 3.35 | M 2.99 | W 2.34 | A 2.44
R16: T 3.39 | Y 2.33 | M 2.88 | A 2.99 | S 3.08 | Q 3.19 | D 4.12 | I 2.4 | L 2.5 | K 3.29 | F 1.35 | E 4.14 | V 2.77
S13: I 3.88 | K 2.39 | C 2.16 | N 2.82 | F 1.7 | G 2.08 | A 3.39 | L 2.07 | W 2.09 | M 2.3 | D 3.16 | P 1.9 | E 3.25 | H 2.29 | V 2.61 | T 2.91
